As usually defined, the EC50 is the midpoint of the concentration-response curve.

Like-named read-outs stand apart in the source and are kept apart here.

The target in assay [1] is T1, recombinant human Siglec15-his protein (human, UniProt Q6ZMC9 20-263).
T1 construct: In house made; Biotin-labeled in the capture ELISA
T1 sequence: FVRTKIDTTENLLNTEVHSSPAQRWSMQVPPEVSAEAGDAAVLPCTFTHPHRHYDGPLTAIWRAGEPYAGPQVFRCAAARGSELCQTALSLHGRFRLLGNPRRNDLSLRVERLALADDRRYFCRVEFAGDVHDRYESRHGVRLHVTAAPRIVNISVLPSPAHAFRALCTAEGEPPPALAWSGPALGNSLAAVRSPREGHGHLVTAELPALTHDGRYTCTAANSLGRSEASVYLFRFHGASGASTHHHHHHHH
Put plainly: capture ELISA, captured antibody, biotin-labeled human Siglec15-his in solution. The procedure:
(§1) Briefly, 96-well plates were coated with 100 μl of 2 μg/ml AffiniPure Goat Anti-Human IgG F(ab′)₂ fragment specific (Jackson Immuno Research, Cat #109-005-097) in PBS for 2 hours at 37° C. Plates were washed once with wash buffer (PBS+0.05% v/v Tween-20, PBST) and then blocked with 200 μl blocking buffer (5% w/v non-fatty milk in PBST) overnight at 4° C. Plates were washed 4 times and respectively incubated with 100 μl serially diluted anti-Siglec15 antibodies of the disclosure, the benchmark and hIgG (human immunoglobulin (pH4) for intravenous injection, Hualan Biological Engineering Inc.), 5-fold dilution in 2.5% w/v non-fatty milk in PBST starting at 66.7 nM, for 40 minutes at 37° C., and then washed 4 times again. Plates containing captured antibodies were incubated with 100 μl biotin-labeled human Siglec15-his protein (in house made with SEQ ID NO: 20, 145 ng/ml in 2.5% w/v non-fatty milk in PBST) for 40 minutes at 37° C., washed 4 times, and incubated with streptavidin conjugated HRP (1:10000 dilution in PBST, Jackson Immuno Research, Cat #016-030-084, 100 μl/well) for 40 minutes at 37° C. After a final wash, plates were incubated with 100 μl/well ELISA substrate TMB (Innoreagents, Cat #TMB-S-002). The reaction was stopped in 4 minutes at room temperature with 50 μl/well 1M H₂SO₄, and the absorbance of each well was read on a microplate reader using dual wavelength mode with 450 nm for TMB and 630 nm as the reference wavelength, then the OD (450-630) values were plotted against antibody concentration. Data was analyzed using Graphpad Prism software and EC₅₀ values were reported.
On the technique in general: ELISA stands for enzyme-linked immunosorbent assay.

The target in assay [2] is T2, mouse Siglec15-his protein (mouse).
T2 construct: In house made
T2 chain: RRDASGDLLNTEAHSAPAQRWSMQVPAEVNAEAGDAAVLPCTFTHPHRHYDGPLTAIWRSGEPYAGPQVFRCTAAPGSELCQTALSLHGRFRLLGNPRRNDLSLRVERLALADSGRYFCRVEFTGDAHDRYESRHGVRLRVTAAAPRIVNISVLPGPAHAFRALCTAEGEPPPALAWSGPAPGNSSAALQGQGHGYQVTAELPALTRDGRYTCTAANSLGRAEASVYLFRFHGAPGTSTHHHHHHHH
Put plainly: indirect ELISA on coated mouse Siglec15-his. The procedure: The anti-Siglec15 antibodies' cross-reactions to cynomolgus or mouse Siglec15 proteins were measured. Briefly, 96-well micro plates were coated with 100 μl of 2 μg/ml cynomolgus Siglec15-his protein (in house made with SEQ ID NO: 21), or 2 μg/ml mouse Siglec15-his protein (in house made with SEQ ID NO: 22) in carbonate/bicarbonate buffer (pH 9.6) for 2 hours at 37° C. ELISA plates were washed once with wash buffer (PBS+0.05% v/v Tween-20, PBST) and then blocked with 200 μl/well blocking buffer (5% w/v non-fatty milk in PBST) overnight at 4° C. Plates were washed 4 times and incubated with 100 μl serially diluted anti-Siglec15 antibodies of the disclosure or controls (starting at 66.7 nM, 5-fold serial dilution in PBST with 2.5% w/v non-fatty milk) for 40 minutes at 37° C. ELISA plates were washed 4 times again and incubated with Peroxidase AffiniPure Goat Anti-Human IgG, F(ab)₂ fragment specific (1:5000 dilution in PBST buffer, Jackson Immunoresearch, Cat #109-035-097, 100 μl/well) for 40 minutes at 37° C. After a final wash, plates were incubated with 100 μl/well TMB (Innoreagents, Cat #TMB-S-002). The reaction was stopped 4 minutes later at room temperature with 50 μl 1M H₂SO₄, and the absorbance of each well was read on a microplate reader using dual wavelength mode with 450 nm for TMB and 630 nm as the reference wavelength, then the OD (450-630) values were plotted against antibody concentration. Data was analyzed using Graphpad Prism software and EC₅₀ values were reported.

In assay [3] the target is T1, recombinant human Siglec15-his protein. The assay is described as follows: capture ELISA, captured antibody, biotin-labeled human Siglec15-his in solution. How it is done:
as §1
This is another data set of the same source.

B1: A1E10G7H9 (antibody, V domains shown)
VH: QVQLQESGPGLVKPSGTLSLTCAVSGGSISSSNWWHWVRQPPGKGLEWIGEIYHSGNTNYKPSLKSRVTISVDKSKNQFSLKLSSVTAADTAVYYCARDEGNGWSNAFDIWGQGTMVTVSS
VL: ENVLTQSPGTLSLSPGERVTLSCRASQSVSSSYLAWYQQKPGQAPRFLIYGASGGATGIPDRFSGSGSGTDFTLTISRLEPEDFAVYYCQQYGSSPITFGQGTRLEIK
notes: Fully human antibody from transgenic mouse hybridoma
As to B1, the 50% effective concentration (EC50) in assay [1] came out at 0.252 nM.

B2: anti-Siglec15 benchmark (ch5G12) (antibody, human IgG1, kappa, V domains shown)
VH: QVQLQQPGAELVKPGASVKMSCKASGYTFTSYWITWVIQRPGQGLEWIGDIYCGSDTMHYNEKFKNKATLTVDTSSSTAYMQLSSLTSEDSAVYYCARWWDYGSSYDYFDYWGQGTTLTVSS
VL: DIKMTQSPSSMYASLGERVTITCKASQDINSYLSWFQQKPGKSPKTLIYRANRLVDGVPSRFSGSGSGQDYSLTISSLEYEDMGIYYCLQYDEFPYTFGGGTKLEIKR
notes: ch5G12 (US 20190202912A1); also called BM; Siglec15-ch5G9
As for B2, the half-maximal effective concentration (EC50) in assay [2] came out at 0.276 nM; in assay [3] it was 1.79 nM; in assay [1], 2.93 nM.

B3: A2A5C7E8 (antibody, V domains shown)
VH: EVQLVQSGAEVKKPGESLRISCKGSGYSFTTYWISWVRQMPGKGLEWMGLIDPSDSYTNYSPSFQGHVTISTDKSISTAYLQWSSLKASDTAMYYCARGGYYGSEEDYWGQGTLVTVSS
VL: EIVLTQSPGTLSLSPGERATLSCRASQSVSSSRLAWFQQKSGQAPRLLIFDASSRATGIPDRFSGSGSGTDFTLTISRLEPEDFAVYYCQQYGSSPRTFGQGTKVEFK
notes: Fully human antibody from transgenic mouse hybridoma; also called A2A5C7E8-1
On to B3, for which the concentration giving a half-maximal response (EC50) in assay [2] is 0.139 nM; in assay [3], 0.0848 nM; in assay [1], 0.232 nM.

B4: A2A5C7E8-2 (antibody, human IgG1, kappa, V domains shown)
VH: EVQLVQSGAEVKKPGESLRISCKGSGYSFTTYWISWVRQMPGKGLEWMGLIDPSESYTNYSPSFQGHVTISTDKSISTAYLQWSSLKASDTAMYYCARGGYYGSEEDYWGQGTLVTVSS
VL: EIVLTQSPGTLSLSPGERATLSCRASQSVSSSRLAWFQQKSGQAPRLLIFDASSRATGIPDRFSGSGSGTDFTLTISRLEPEDFAVYYCQQYGSSPRTFGQGTKVEFKR
notes: Variant of A2A5C7E8 modified in VH CDR2 (X1 = E)
For the molecule B4, the EC50 in assay [2] was determined as 0.151 nM; in assay [3] it was 0.502 nM.

B5: A2A5C7E8-3 (antibody, human IgG1, kappa, V domains shown)
VH: EVQLVQSGAEVKKPGESLRISCKGSGYSFTTYWISWVRQMPGKGLEWMGLIDPSDSYTNYSPSFKGHVTISTDKSISTAYLQWSSLKASDTAMYYCARGGYYGSEEDYWGQGTLVTVSS
VL: EIVLTQSPGTLSLSPGERATLSCRASQSVSSSRLAWFQQKSGQAPRLLIFDASSRATGIPDRFSGSGSGTDFTLTISRLEPEDFAVYYCQQYGSSPRTFGQGTKVEFKR
notes: Variant of A2A5C7E8 modified in VH CDR2 (X2 = K)
Take B5: the EC50 was found to be 0.159 nM in assay [2] and 0.0902 nM in assay [3].

These data come from patent publication US20230106715A1 (BIOSION, published 2023).
